In test [1] the target is T1, SSA.
T1 construct: also called SSA (Ro)
Put plainly: AtheNA, Ab 25 ug/ml.

Test [2] has as its target T2, SSB (UniProt P05455 1-408).
T2 sequence: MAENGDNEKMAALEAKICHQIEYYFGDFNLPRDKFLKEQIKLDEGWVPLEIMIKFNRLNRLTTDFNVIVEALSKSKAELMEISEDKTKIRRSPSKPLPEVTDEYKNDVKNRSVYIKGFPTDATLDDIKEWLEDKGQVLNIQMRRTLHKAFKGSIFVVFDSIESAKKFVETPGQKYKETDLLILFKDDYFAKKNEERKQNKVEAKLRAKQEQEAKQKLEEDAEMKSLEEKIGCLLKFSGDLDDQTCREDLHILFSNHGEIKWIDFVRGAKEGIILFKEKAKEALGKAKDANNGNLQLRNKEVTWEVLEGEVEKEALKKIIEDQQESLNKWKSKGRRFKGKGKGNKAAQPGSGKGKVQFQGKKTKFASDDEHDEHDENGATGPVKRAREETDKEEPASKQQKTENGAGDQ
In words: AtheNA, Ab 25 ug/ml.

For test [3], the target named is T3, Sm (Smith antigen).
T3 construct: Protein complex
Put plainly: AtheNA, Ab 25 ug/ml.

The target in test [4] is T4, RNP (ribonucleoprotein).
T4 construct: Protein-RNA complex
In words: AtheNA, Ab 25 ug/ml.

Test [5] deals with T5, Scl-70 (UniProt P11387 1-765).
T5 sequence: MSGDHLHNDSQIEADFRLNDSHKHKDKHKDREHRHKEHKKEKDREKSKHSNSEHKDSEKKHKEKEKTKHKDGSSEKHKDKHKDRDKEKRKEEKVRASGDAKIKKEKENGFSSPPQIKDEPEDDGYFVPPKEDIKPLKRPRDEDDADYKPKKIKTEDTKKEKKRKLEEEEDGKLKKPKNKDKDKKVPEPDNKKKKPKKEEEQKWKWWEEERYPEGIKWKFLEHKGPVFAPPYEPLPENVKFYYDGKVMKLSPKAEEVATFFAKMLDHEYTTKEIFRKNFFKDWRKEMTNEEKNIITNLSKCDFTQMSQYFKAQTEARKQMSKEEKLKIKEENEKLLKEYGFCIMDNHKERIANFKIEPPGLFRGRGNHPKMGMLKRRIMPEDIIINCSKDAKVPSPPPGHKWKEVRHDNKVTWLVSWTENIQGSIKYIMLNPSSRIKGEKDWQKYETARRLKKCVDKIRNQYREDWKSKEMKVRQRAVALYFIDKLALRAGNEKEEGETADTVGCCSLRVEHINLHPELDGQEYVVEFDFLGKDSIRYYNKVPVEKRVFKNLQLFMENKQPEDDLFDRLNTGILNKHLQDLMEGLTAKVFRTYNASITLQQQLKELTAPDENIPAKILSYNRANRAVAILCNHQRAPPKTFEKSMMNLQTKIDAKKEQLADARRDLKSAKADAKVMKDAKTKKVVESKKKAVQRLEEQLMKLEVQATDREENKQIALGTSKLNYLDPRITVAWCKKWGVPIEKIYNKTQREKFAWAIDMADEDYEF
In words: AtheNA, Ab 25 ug/ml.

Test [6] concerns the target T6, Jo-1 (UniProt P12081 1-509).
T6 sequence: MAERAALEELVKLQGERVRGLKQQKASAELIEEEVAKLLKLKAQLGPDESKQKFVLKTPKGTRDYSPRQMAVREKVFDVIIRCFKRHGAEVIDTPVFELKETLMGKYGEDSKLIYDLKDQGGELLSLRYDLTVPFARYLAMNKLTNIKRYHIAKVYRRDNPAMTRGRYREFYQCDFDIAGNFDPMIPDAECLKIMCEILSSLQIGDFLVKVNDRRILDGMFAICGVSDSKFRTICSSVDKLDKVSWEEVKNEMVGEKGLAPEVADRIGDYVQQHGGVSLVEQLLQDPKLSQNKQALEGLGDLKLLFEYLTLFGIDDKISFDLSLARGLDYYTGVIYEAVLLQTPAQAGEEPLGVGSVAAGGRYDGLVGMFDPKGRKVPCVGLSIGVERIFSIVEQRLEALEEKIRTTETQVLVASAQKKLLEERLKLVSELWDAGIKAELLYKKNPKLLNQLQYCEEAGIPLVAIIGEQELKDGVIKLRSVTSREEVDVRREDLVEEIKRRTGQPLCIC
In words: AtheNA, Ab 25 ug/ml.

Test [7] addresses T7, Histones.
T7 construct: Mixture of proteins
Put plainly: AtheNA, Ab 25 ug/ml.

Test [8] deals with T2, SSB. Put plainly: AtheNA, Ab 12.5 ug/ml.
Test [9] deals with T4, RNP (ribonucleoprotein). In words: AtheNA, Ab 12.5 ug/ml.
In test [10] the target is T5, Scl-70. Put plainly: AtheNA, Ab 12.5 ug/ml.
Test [11] has as its target T1, SSA. Put plainly: AtheNA, Ab 6.25 ug/ml.
Test [12] deals with T2, SSB. Put plainly: AtheNA, Ab 6.25 ug/ml.
The target of test [13] is T3, Sm (Smith antigen). In words: AtheNA, Ab 6.25 ug/ml.
Test [14] addresses T4, RNP (ribonucleoprotein). In words: AtheNA, Ab 6.25 ug/ml.
For test [15], the target named is T5, Scl-70. Put plainly: AtheNA, Ab 6.25 ug/ml.
Test [16] has as its target T6, Jo-1. In words: AtheNA, Ab 6.25 ug/ml.
Test [17] concerns the target T7, Histones. Put plainly: AtheNA, Ab 6.25 ug/ml.
Test [18] concerns the target T8, HIV-1 CH505 transmitted/founder gp120 Env (HIV-1).
T8 construct: domain: gp120; also called CH505.TF gp120; CH505 TF gp120 Env
In words: competition ELISA, blocking of sCD4 binding to gp120.

Test [19] concerns the target T8, HIV-1 CH505 transmitted/founder gp120 …. In words: competition ELISA, blocking of CH106 binding to gp120.

B1: CH241 (antibody, V domains shown)
VH: QVQLVQSGAAVKKPGASVRVSCKASGYTFTSSHIHWVRQAPGQGPEWMGMIDPSVGRPTTAGKFQGRVTMTRDRYTSTAYMDLSSLRSEDTAVYYCARSVETTGSLLYFDYWGQGTLITVSS
VL: EIVLTQSPATLSVSPGERATLSCRASQSVRSNIAWYQQKPGQAPRLLIHGASTRATGIPGRFSGSGSGPEFTLAISSVQSEDFAVYYCQQYNDWWTFGQGTKVEIK
For B1, the AtheNA signal was 15 relative luminescence units with SSA [1]; 6 relative luminescence units in the test with SSB [2]; 11 relative luminescence units in the test with Sm (Smith antigen) [3]; 6 relative luminescence units with RNP (ribonucleoprotein) [4]; 4 relative luminescence units in the test with Scl-70 [5]; 5 relative luminescence units with Jo-1 [6]. Further, the AtheNA signal is 20 relative luminescence units with Histones [7]; 8 relative luminescence units with SSB [8]; 5 relative luminescence units in the test with RNP (ribonucleoprotein) [9]; 3 relative luminescence units with Scl-70 [10]; 15 relative luminescence units with SSA [11]; 4 relative luminescence units in the test with SSB [12]. The AtheNA signal was 4 relative luminescence units in the test with Sm (Smith antigen) [13]; 3 relative luminescence units in the test with RNP (ribonucleoprotein) [14]; 1 relative luminescence units in the test with Scl-70 [15]; 2 relative luminescence units with Jo-1 [16]; 9 relative luminescence units with Histones [17]. Moreover, the IC50 in test [18] stood at 2.6 µg/mL; in [19] it was 1.5 µg/mL.

B2: CH235 (antibody, V domains shown)
VH: QVQLVQSGAEVKKPGASVTVSCQASGYTFTNYYVHWVRQAPGQGLQLMGWIDPSWGRTNYAQNFQGRITMTRDTSTSTVYMEMRSLRSEDTAVYYCARNVATEGSLLHYDYWGQGTLVTVSA
VL: EIVLTQSPATLSVSPGERATLSCRASQSVRSNLAWYQQRPGQAPRLLIYGTSTRATGVPARFSGRGSGTEFTLAISSMQSEDFAVYLCLQYNNWWTFGQGTKVEIK
notes: also called CH235_4A
For B2, the AtheNA signal in the test with SSA [1] is 13 relative luminescence units; with SSB [2], 5 relative luminescence units; with Sm (Smith antigen) [3], 7 relative luminescence units; with RNP (ribonucleoprotein) [4] it was 5 relative luminescence units; with Scl-70 [5], 4 relative luminescence units; with Jo-1 [6] it was 4 relative luminescence units. Besides, the AtheNA signal with Histones [7] was 7 relative luminescence units; in the test with SSB [8], 5 relative luminescence units; with RNP (ribonucleoprotein) [9], 6 relative luminescence units; with Scl-70 [10] it was 2 relative luminescence units; with SSA [11] it was 12 relative luminescence units; with SSB [12] it was 6 relative luminescence units. The AtheNA signal was 5 relative luminescence units with Sm (Smith antigen) [13]; 3 relative luminescence units in the test with RNP (ribonucleoprotein) [14]; 2 relative luminescence units with Scl-70 [15]; 2 relative luminescence units in the test with Jo-1 [16]; 5 relative luminescence units in the test with Histones [17]. Besides, the IC50 in test [18] was 26.3 µg/mL; in test [19], 16.5 µg/mL.

Source of the values: patent US10450368 (DUKE UNIVERSITY, dated 2019).
